Data published in paper PMC10511561, “Synergism between CMG helicase and leading strand DNA polymerase at replication fork” (Nature Communications, 2023).

T1: Mcm4 (subunit of CMG) (yeast, UniProt P30665 1-933)
T1 construct: Mcm4, yeast; Chain of m1 as it stands in the replisome structure; source: yeast strain yJCZ2, purified as part of CMG (anti-FLAG M2 resin, Mono Q, Superose 6)
T1 sequence: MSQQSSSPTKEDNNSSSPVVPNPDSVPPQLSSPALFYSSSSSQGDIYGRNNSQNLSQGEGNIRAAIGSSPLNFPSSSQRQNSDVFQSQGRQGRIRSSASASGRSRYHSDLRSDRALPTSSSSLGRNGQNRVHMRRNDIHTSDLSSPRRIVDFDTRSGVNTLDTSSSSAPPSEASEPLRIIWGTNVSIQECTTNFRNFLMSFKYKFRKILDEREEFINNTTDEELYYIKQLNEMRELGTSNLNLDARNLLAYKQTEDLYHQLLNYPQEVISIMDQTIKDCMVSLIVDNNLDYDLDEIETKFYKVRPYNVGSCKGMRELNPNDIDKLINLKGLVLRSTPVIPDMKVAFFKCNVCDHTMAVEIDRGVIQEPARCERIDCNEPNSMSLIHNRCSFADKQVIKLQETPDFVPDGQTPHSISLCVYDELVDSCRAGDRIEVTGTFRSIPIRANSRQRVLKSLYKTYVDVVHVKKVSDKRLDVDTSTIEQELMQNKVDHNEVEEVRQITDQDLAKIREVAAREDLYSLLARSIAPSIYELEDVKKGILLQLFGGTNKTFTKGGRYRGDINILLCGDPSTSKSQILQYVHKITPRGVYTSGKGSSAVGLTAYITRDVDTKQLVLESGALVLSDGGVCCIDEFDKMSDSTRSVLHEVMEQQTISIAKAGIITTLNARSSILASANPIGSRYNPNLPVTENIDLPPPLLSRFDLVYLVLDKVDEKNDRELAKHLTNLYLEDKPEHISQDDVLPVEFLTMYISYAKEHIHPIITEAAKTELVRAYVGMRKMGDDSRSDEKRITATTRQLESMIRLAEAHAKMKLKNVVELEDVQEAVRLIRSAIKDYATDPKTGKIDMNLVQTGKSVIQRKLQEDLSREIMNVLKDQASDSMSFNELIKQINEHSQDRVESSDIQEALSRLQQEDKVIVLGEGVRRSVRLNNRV

T2: Mcm5 (subunit of CMG) (yeast, UniProt P29496 1-775)
T2 construct: Mcm5, yeast; Chain of m1 as it stands in the replisome structure; also called Mcm5-CTD; Mcm5-WHD; source: yeast strain yJCZ2, purified as part of CMG (anti-FLAG M2 resin, Mono Q, Superose 6)
T2 sequence: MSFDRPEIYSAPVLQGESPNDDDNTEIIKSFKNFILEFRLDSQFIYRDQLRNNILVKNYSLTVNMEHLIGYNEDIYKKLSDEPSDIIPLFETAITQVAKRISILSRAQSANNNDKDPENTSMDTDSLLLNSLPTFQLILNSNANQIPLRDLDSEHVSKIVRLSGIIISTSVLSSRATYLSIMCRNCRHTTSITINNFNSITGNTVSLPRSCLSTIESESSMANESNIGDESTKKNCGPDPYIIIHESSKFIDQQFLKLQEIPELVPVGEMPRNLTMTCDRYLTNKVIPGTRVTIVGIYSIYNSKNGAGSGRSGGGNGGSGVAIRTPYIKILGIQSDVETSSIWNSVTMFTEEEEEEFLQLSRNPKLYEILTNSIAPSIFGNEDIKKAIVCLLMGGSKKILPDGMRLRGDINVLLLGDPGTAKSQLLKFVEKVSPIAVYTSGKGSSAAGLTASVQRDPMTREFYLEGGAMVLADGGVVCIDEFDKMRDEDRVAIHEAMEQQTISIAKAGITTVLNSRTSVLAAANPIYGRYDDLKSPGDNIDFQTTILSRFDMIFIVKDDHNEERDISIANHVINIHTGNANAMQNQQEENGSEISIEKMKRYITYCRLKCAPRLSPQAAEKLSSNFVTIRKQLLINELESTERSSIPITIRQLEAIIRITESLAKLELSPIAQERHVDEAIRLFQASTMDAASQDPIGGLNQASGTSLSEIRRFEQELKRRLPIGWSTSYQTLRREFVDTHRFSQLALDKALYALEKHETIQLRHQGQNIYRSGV

B1: Mcm7 (subunit of CMG) (natural protein, yeast)
chain: MSAALPSIQLPVDYNNLFNEITDFLVTFKQDTLSSDATRNENEDENLDAENIEQHLLEKGPKYMAMLQKVANRELNSVIIDLDDILQYQNEKFLQGTQADDLVSAIQQNANHFTELFCRAIDNNMPLPTKEIDYKDDVLDVILNQRRLRNERMLSDRTNEIRSENLMDTTMDPPSSMNDALREVVEDETELFPPNLTRRYFLYFKPLSQNCARRYRKKAISSKPLSVRQIKGDFLGQLITVRGIITRVSDVKPAVEVIAYTCDQCGYEVFQEVNSRTFTPLSECTSEECSQNQTKGQLFMSTRASKFSAFQECKIQELSQQVPVGHIPRSLNIHVNGTLVRSLSPGDIVDVTGIFLPAPYTGFKALKAGLLTETYLEAQFVRQHKKKFASFSLTSDVEERVMELITSGDVYNRLAKSIAPEIYGNLDVKKALLLLLVGGVDKRVGDGMKIRGDINVCLMGDPGVAKSQLLKAICKISPRGVYTTGKGSSGVGLTAAVMKDPVTDEMILEGGALVLADNGICCIDEFDKMDESDRTAIHEVMEQQTISISKAGINTTLNARTSILAAANPLYGRYNPRLSPLDNINLPAALLSRFDILFLMLDIPSRDDDEKLAEHVTYVHMHNKQPDLDFTPVEPSKMREYIAYAKTKRPVMSEAVNDYVVQAYIRLRQDSKREMDSKFSFGQATPRTLLGIIRLSQALAKLRLADMVDIDDVEEALRLVRVSKESLYQETNKSKEDESPTTKIFTIIKKMLQETGKNTLSYENIVKTVRLRGFTMLQLSNCIQEYSYLNVWHLINEGNTLKFVDDGTMDTDQEDSLVSTPKLAPQTTASANVSAQDSDIDLQDA
notes: Mcm7, yeast; Chain of m1 as it stands in the replisome structure; source: yeast strain yJCZ2, purified as part of CMG (anti-FLAG M2 resin, Mono Q, Superose 6)
B2: Dpb2 (subunit of Polε in the replisome) (natural protein, yeast)
chain: MFGSGNVLPVKIQPPLLRPLAYRVLSRKYGLSIKSDGLSALAEFVGTNIGANWRQGPATIKFLEQFAAVWKQQERGLFIDQSGVKEVIQEMKEREKVEWSHEHPIQHEENILGRTDDDENNSDDEMPIAADSSLQNVSLSSPMRQPTERDEYKQPFKPESSKALDWRDYFKVINASQQQRFSYNPHKMQFIFVPNKKQNGLGGIAGFLPDIEDKVQMFLTRYYLTNDRVMRNENFQNSDMFNPLSSMVSLQNELSNTNRQQQSSSMSITPIKNLLGRDAQNFLLLGLLNKNFKGNWSLEDPSGSVEIDISQTIPTQGHYYVPGCMVLVEGIYYSVGNKFHVTSMTLPPGERREITLETIGNLDLLGIHGISNNNFIARLDKDLKIRLHLLEKELTDHKFVILGANLFLDDLKIMTALSKILQKLNDDPPTLLIWQGSFTSVPVFASMSSRNISSSTQFKNNFDALATLLSRFDNLTENTTMIFIPGPNDLWGSMVSLGASGTLPQDPIPSAFTKKINKVCKNVVWSSNPTRIAYLSQEIVIFRDDLSGRFKRHRLEFPFNESEDVYTENDNMMSKDTDIVPIDELVKEPDQLPQKVQETRKLVKTILDQGHLSPFLDSLRPISWDLDHTLTLCPIPSTMVLCDTTSAQFDLTYNGCKVINPGSFIHNRRARYMEYVPSSKKTIQEEIYI
notes: Dpb2, yeast, subunit of Polε; NTD 12-98, linker 99-156, PDE domain 157-689 as printed; Chain of m2 as it stands in the replisome structure; also called Dpb2-NTD; Dpb2-OB; source: yeast strain yAJ2, purified as part of Polε (calmodulin resin, TEV elution, Mono Q, Superose 6)
B3: Psf1 (subunit of GINS in CMG) (natural protein, yeast)
chain: MYGDLGNKLVLEAKRTKQLYARSNQDVNLPMYHEDIIRNILKEVSNLRKNTEYLKEQQQLGMLDDKVAKCQYFVTLLCMERNKRCLLAYQRLRTDILDSMAWNNNGLDLMSSITFSQQDTNNLSHQEQEYLKEYCDLITDLKSGDLVDIDLSGSLVPPSDVFIDVRVLKDAGEIQTEYGVFNLIKDSQFFVRQSDVERLIQQGYLQKI
notes: Psf1, yeast, subunit of GINS; Chain of m1 as it stands in the replisome structure; also called Psf1 B domain; Psf1-B domain; source: yeast strain yJCZ2, purified as part of CMG (anti-FLAG M2 resin, Mono Q, Superose 6)

Legend:
Test in all cases: cryo-EM structure; replisome assembled at room temperature from 0.7 uM CMG, forked DNA and ATPγS, then 1.5 molar excess of Polε, Ctf4, Tof1-Csm3; 100 mM KCl, 25 mM HEPES pH 7.6, 4 mM MgCl2, 4 mM ATPγS; 10-30% glycerol gradient with glutaraldehyde fixation; States I-VI by 3D classification
Settings in all cases: both partners purified
Mcm3 (subunit of CMG) = molecular target: T3, Mcm3 (subunit of CMG) (yeast, UniProt P24279 1-971)
T3 construct: Mcm3, yeast; Chain of m1 as it stands in the replisome structure; source: yeast strain yJCZ2, purified as part of CMG (anti-FLAG M2 resin, Mono Q, Superose 6)
T3 sequence (P24279 whole entry): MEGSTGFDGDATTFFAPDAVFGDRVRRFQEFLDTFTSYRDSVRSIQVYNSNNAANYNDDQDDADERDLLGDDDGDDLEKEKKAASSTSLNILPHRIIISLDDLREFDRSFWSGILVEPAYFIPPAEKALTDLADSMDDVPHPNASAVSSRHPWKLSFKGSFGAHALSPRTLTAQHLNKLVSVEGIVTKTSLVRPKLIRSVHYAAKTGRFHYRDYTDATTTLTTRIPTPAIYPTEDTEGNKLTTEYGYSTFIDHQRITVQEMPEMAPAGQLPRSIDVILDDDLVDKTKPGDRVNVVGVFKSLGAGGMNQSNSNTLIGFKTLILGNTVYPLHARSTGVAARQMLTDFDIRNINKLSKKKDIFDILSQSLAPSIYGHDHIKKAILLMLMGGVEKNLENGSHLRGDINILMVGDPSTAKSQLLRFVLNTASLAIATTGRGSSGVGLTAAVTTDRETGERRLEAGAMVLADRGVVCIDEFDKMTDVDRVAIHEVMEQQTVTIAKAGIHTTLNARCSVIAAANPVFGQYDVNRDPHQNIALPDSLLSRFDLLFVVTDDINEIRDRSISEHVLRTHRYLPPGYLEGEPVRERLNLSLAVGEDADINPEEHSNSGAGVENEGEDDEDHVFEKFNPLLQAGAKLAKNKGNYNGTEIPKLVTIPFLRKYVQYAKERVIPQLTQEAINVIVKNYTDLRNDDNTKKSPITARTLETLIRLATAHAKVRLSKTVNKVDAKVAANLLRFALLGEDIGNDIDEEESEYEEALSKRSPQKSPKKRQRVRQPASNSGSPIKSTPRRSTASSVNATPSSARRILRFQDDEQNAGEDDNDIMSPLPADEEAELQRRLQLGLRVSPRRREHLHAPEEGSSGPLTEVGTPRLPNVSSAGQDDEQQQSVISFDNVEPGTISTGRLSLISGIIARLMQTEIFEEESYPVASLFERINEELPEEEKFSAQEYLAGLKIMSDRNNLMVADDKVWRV

Mcm4 (subunit of CMG) = molecular target: T1, Mcm4 (subunit of CMG)
Tof1-Csm3 = molecular target: T4, Tof1-Csm3 (yeast, UniProt P53840 1-1238; Q04659 1-317)
T4 construct: Tof1, yeast; Csm3, yeast; Purified beforehand as one complex; also called Tof1 and Csm3; components of the fork protection complex (FPC); source: yeast strain yAE48, galactose-induced, purified (calmodulin resin, TEV elution, Mono Q, Superose 6); not shown: CBP, N-terminal, cleaved
T4 sequence (P53840 whole entry, chain 1 of 2): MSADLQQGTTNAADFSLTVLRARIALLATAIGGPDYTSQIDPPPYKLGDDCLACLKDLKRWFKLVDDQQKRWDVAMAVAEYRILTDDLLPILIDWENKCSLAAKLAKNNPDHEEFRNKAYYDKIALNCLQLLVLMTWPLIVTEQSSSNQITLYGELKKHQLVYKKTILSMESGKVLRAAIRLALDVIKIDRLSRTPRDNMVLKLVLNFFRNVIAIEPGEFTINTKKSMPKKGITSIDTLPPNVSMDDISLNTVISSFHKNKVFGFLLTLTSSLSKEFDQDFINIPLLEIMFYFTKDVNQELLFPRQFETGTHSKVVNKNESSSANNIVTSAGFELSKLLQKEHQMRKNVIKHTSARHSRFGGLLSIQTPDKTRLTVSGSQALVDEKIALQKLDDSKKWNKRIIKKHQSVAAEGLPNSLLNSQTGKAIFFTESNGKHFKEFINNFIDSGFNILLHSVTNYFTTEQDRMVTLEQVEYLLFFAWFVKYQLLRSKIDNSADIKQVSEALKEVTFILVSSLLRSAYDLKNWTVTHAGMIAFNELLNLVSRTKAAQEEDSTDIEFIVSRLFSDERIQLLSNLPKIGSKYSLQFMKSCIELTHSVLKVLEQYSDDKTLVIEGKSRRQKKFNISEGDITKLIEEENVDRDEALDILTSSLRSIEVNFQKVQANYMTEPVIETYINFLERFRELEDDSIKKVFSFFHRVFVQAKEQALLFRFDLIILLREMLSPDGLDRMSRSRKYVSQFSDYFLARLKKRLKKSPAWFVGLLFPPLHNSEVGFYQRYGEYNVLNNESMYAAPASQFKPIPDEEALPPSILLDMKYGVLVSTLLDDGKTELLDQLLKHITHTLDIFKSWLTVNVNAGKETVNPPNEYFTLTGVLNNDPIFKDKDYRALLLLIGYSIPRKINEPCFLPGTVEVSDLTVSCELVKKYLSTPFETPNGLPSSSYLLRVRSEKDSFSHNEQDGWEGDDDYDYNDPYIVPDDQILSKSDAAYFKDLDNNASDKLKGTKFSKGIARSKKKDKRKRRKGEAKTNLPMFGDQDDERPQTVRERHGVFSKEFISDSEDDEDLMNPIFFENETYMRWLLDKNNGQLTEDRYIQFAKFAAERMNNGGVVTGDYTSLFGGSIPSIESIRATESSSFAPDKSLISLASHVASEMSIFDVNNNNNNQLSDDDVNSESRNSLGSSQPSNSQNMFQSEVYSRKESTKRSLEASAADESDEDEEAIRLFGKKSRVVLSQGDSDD
T4 sequence (Q04659 whole entry, chain 2 of 2): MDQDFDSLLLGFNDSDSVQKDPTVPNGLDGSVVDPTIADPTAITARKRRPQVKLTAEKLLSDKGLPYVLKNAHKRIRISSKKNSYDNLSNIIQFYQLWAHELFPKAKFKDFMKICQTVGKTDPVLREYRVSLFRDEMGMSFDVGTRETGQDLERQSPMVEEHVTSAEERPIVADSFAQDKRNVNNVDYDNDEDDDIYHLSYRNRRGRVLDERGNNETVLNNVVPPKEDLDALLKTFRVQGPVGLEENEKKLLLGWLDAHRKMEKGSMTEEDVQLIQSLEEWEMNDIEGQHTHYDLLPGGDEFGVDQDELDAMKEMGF

Mcm5 (subunit of CMG) = molecular target: T2, Mcm5 (subunit of CMG)
[1] = molecular target: B2

Binder	binding result (Mcm3 (subunit of CMG))	binding result (Mcm4 (subunit of CMG))	binding result (Tof1-Csm3)	binding result (Mcm5 (subunit of CMG))	binding result [1]
B1	binds	binds	binds	–	–
B2	binds	–	–	binds	–
B3	–	–	–	–	binds
